In paper PMC7736808, “Dual conformational recognition by Z-DNA binding protein is important for the B–Z transition process”:

Assays:
hZαADAR1 = target: T1, hZαADAR1 (human, UniProt P55265); assay: MST; 20 mM NaCl; text says 1.8 uM; MST at 22 C, 5 nM labeled DNA, 0.5 mg/ml BSA, 0.05% Tween 20; 5 mM HEPES pH 7.5, 20 mM NaCl (Table 2); 20 mM HEPES pH 8.0, 100 mM NaCl (Table 4); 20 mM Tris-HCl pH 7.8, 150 mM KCl (Table 5); details: protein: recombinant; tags: N-terminal His6, cleaved by thrombin; chain copies: 2; label: 5'-Alexa647 on strand 1; blunt
T1 sequence: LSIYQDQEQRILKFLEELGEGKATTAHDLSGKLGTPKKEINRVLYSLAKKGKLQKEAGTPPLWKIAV

vvZαE3L = vvZαE3L (UniProt P21605); assay: MST; 20 mM NaCl; text says 20 uM; MST at 22 C, 5 nM labeled DNA, 0.5 mg/ml BSA, 0.05% Tween 20; 5 mM HEPES pH 7.5, 20 mM NaCl (Table 2); 20 mM HEPES pH 8.0, 100 mM NaCl (Table 4); 20 mM Tris-HCl pH 7.8, 150 mM KCl (Table 5); details: protein: recombinant; label: 5'-Alexa647 on strand 1; blunt
GH5* = target: T2, GH5* (UniProt P02259, K41G;S42G;R43G;K53A;R95A); assay: MST; 150 mM KCl, pH 7.8; MST at 22 C, 5 nM labeled DNA, 0.5 mg/ml BSA, 0.05% Tween 20; 5 mM HEPES pH 7.5, 20 mM NaCl (Table 2); 20 mM HEPES pH 8.0, 100 mM NaCl (Table 4); 20 mM Tris-HCl pH 7.8, 150 mM KCl (Table 5); details: protein: recombinant; label: 5'-Alexa647 on strand 1; blunt
T2 sequence: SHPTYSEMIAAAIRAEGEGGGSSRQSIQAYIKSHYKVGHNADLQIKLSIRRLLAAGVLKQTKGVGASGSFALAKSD

GH5*:α3NADAR1-PW [1] = target: T3, GH5*:α3NADAR1-PW (/ human ADAR1 α3N and β-wing residues, UniProt P02259, K41G;S42G;R43G;K53A;R95A;del65;D66K;L67K;Q68E;K70N;L71R;S72V;I73L;R74Y;R75S;S91P …); assay: as above; details: protein: recombinant; chain copies: 2; label: 5'-Alexa647 on strand 1; blunt
T3 sequence: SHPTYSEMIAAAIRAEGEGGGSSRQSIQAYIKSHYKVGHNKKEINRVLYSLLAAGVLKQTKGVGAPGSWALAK

GH5*:α3NADAR1-PW [2] = target: T3, GH5*:α3NADAR1-PW; assay: MST; 100 mM NaCl, pH 8.0; MST at 22 C, 5 nM labeled DNA, 0.5 mg/ml BSA, 0.05% Tween 20; 5 mM HEPES pH 7.5, 20 mM NaCl (Table 2); 20 mM HEPES pH 8.0, 100 mM NaCl (Table 4); 20 mM Tris-HCl pH 7.8, 150 mM KCl (Table 5); details: protein: recombinant; chain copies: 2; label: 5'-Alexa647 on strand 1; blunt

B1: B-DNA 21 bp (dsDNA)
DNA 1: TATGCAATCGTAATAAACCGT
DNA 2: ACGGTTTATTACGATTGCATA
hZαADAR1
  Kd: 2.7 ± 0.5 µM
vvZαE3L
  Kd: 21 ± 0.5 µM
GH5*
  Kd: 167 ± 50 µM
GH5*:α3NADAR1-PW [1]
  Kd: 144 ± 16 µM
GH5*:α3NADAR1-PW [2]
  Kd: 31 ± 2 µM
